Source: patent US6716811B1, “Compounds having affinity for the granulocyte-colony stimulating factor receptor (G-CSFR) and associated uses” (Affymax, Inc., priority 2000, dated 2004)
Where a SMILES comes first, the peptide text is derived from it. Bridges are numbered along the chain shown (N, C = ends). Roman numbers before positions name the chains, in order.

Assays:
[1] = target: T1, G-CSFR (Homo sapiens, UniProt Q99062); assay: G-CSF radioligand binding assay (SPA beads, 125I labeled G-CSF); conditions: reduction by 50% of 125I labeled G-CSF bound to immobilized G-CSFR; overnight at 4° C.
T1 construct: incubation with soluble G-CSFR harvest; made in house
T1 sequence (Q99062 25-627): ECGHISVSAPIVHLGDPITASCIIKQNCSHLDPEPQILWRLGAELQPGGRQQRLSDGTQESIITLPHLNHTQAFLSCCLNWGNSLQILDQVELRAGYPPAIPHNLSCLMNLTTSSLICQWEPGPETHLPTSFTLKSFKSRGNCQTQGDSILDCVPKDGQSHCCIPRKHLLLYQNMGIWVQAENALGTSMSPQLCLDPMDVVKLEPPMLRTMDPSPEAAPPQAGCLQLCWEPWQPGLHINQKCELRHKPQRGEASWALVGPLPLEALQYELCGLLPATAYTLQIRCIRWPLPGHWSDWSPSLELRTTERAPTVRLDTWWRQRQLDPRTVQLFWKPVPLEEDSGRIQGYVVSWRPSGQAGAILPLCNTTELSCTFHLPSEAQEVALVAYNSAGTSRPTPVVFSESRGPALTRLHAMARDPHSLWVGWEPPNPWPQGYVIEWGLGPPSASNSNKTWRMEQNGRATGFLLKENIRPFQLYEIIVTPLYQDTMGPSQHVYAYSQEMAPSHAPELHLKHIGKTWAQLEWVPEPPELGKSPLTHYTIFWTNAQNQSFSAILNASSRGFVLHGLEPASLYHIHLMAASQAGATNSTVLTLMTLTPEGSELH
Procedure: Streptavidin-coated scintillation proximity assay (SPA) beads (Amersham) were mixed with biotinylated anti-receptor immobilizing antibody (Ab179) followed by incubation with soluble G-CSFR harvest. Receptor-coated SPA beads were washed twice in PBS/0.1% BSA and distributed to wells of a white polystyrene 96-well microtiter plate (Packard). Serial dilutions of peptide or peptide mimetic were mixed with a constant amount of ^125I labeled G-CSF (10^5 cpm; 1290 Ci/mmol) in PBS/0.1% BSA, added to wells containing receptor-coated SPA beads, and incubated overnight at 4° C. The binding of radiolabeled G-CSF to the receptor-coated SPA bead brings the isotope in close proximity to the scintillant, which allows the emitted radiation to stimulate the scintillant to emit light. […] The amount of ^125I labeled G-CSF that was bound at equilibrium was measured by counting the plate in a TopCount (Wallac) microtiter plate luminometer. […] One can determine the concentration at which the peptide or peptide mimetic will reduce by 50% (IC50) the amount of ^125I labeled G-CSF bound to immobilized G-CSFR.

[2] = target: T1, G-CSFR; assay: Specific binding of peptides to G-CSFR; conditions: total minus non-specific binding; unlabeled ligand typically G-CSF variant CS17
Text: Specific binding is binding of a ligand to a specific receptor, as opposed to non-specific binding that is mediated by non-specific interactions. Specific binding may be measured by subtraction of the non-specific binding (measured in the presence of saturating concentrations of unlabeled ligand) from the total binding (measured in the absence of saturating amounts of ligand). Typically, the unlabeled ligand used was a variant of G-CSF in which the cysteine normally found at position 17 was converted to serine (CS17).

[3] = target: T2, G-CSFR (Homo sapiens, UniProt Q99062); assay: G-CSF competition binding assay (125I labeled G-CSF, immobilized G-CSFR in microtiter wells); design: made in house; conditions: reduction of bound 125I labeled G-CSF; overnight at 4° C.
T2 sequence (Q99062 25-836): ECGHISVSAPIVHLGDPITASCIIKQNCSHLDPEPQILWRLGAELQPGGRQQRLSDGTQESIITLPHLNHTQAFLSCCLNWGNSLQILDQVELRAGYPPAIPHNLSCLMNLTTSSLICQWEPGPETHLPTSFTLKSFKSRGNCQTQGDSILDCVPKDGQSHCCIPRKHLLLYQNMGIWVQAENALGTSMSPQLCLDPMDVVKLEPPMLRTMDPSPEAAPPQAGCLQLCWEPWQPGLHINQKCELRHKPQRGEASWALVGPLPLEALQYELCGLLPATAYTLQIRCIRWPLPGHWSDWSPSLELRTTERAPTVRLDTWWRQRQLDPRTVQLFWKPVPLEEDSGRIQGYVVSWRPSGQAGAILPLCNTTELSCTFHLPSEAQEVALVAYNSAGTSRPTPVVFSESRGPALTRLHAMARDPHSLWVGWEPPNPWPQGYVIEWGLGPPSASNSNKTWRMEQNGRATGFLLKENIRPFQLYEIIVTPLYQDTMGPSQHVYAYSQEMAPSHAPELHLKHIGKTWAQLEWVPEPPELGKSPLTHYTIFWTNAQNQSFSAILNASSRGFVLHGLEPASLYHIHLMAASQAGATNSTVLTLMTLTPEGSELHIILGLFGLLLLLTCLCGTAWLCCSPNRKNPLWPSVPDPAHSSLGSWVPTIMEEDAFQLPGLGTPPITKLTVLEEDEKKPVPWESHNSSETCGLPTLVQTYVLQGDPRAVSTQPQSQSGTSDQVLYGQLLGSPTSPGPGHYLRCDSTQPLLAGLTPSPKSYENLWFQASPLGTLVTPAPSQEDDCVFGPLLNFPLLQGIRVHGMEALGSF
Procedure: Determination of competitive binding was also carried out for a number of peptides. Briefly stated, G-CSFR was purified using standard techniques. The receptor was then immobilized in microtiter plate wells that were coated with acid-treated antibody (A b179) specific for a site on G-CSFR not involved with G-CSF binding. Separately, ^125I was coupled to the natural ligand G-CSF using techniques well known in the art. Test peptides were added to receptor-coated wells and allowed to bind to immobilized receptor for approximately 30 minutes. ^125 labeled G-CSF was then introduced to the wells and incubated overnight at 4°C. Unbound ^125I labeled G-CSF was removed by washing the plate several times followed by measuring the amount of radioactivity that remained in each well using conventional techniques. […] Alternatively, if reduced amounts or no ^125I labeled G-CSF was detected, the peptide did compete.

| Compound | IC50 [1] | Specific Binding? [2] | Competitive Binding? [3] |
| --- | --- | --- | --- |
| CADEVMHFCC [Example 3] | – | Yes | Yes |
| CNREIEAMCC [Example 2] | – | Yes | Yes |
| CACMLRVVHC [Example 14] | – | Yes | Yes |
| CAGEVMHMCC [Example 1] | – | Yes | Yes |
| CFWSDWGQTC [Example 11] | – | No | No |
| CHANPVWGEC [Example 9] | – | No | No |
| CQRAGYMLAC [Example 8] | – | No | No |
| CDPWMFYDLC [Example 7] | – | Yes | No |
| CDVWQLFDRC [Example 4] | – | Yes | Yes |
| CSFVQLNSIC [Example 5] | – | Yes | Yes |
| CPHWTSYYMC [Example 13] | – | Yes | Yes |
| CVPWMFYDLC [Example 6] | – | Yes | No |
| CPDWYQSYMC [Example 12] | – | Yes | Yes |
| CETLCGACFC [Example 15] | – | No | No |

Results, then the compound that gave them:

| IC50 [1] | Specific Binding? [2] | Competitive Binding? [3] | Compound |
| --- | --- | --- | --- |
| > 200 µM | – | – | N=C(N)NCCC[C@H](NC(=O)[C@H](CCC(=O)O)NC(=O)[C@H](CO)NC(=O)[C@H](CC(N)=O)NC(=O)[C@H](CO)NC(=O)[C@@H](N)CCC(N)=O)C(=O)N[C@@H](CCC(=O)O)C(=O)N[C@@H](Cc1c[nH]c2ccccc12)C(=O)N[C@@H](Cc1ccccc1)C(=O)N[C@@H](CSSC[C@H](NC(=O)[C@H](Cc1ccccc1)NC(=O)[C@H](Cc1c[nH]c2ccccc12)NC(=O)[C@H](CCC(=O)O)NC(=O)[C@H](CCCNC(=N)N)NC(=O)[C@H](CCC(=O)O)NC(=O)[C@H](CO)NC(=O)[C@H](CC(N)=O)NC(=O)[C@H](CO)NC(=O)[C@@H](N)CCC(N)=O)C(=O)NCC(N)=O)C(=O)NCC(N)=O [Example 41] (I: H-QSNSEREWFCG-NH2 / II: H-QSNSEREWFCG-NH2; disulfide I:10-II:10) |
| > 200 µM | – | – | H-KSTGGLTAERDAEKRRWLLTHGGE-OH [Example 66] |
| > 200 µM | – | – | H-QSNSEREWFCG-NH2 [Example 40, NH2-QSNSEREWFCG-CONH2] |
| > 200 µM | – | – | N=C(N)NCCC[C@H](NC(=O)[C@H](CCC(=O)O)NC(=O)[C@H](CO)NC(=O)[C@H](CC(N)=O)NC(=O)[C@H](CO)NC(=O)[C@@H](N)CCC(N)=O)C(=O)N[C@@H](CCC(=O)O)C(=O)N[C@@H](Cc1c[nH]c2ccccc12)C(=O)N[C@@H](Cc1ccccc1)C(=O)N[C@@H](CSSC[C@H](NC(=O)[C@H](Cc1ccccc1)NC(=O)[C@H](Cc1c[nH]c2ccccc12)NC(=O)[C@H](CCC(=O)O)NC(=O)[C@H](CCCNC(=N)N)NC(=O)[C@H](CCC(=O)O)NC(=O)[C@H](CO)NC(=O)[C@H](CC(N)=O)NC(=O)[C@H](CO)NC(=O)[C@@H](N)CCC(N)=O)C(N)=O)C(N)=O [Example 39] (I: H-QSNSEREWFC-NH2 / II: H-QSNSEREWFC-NH2; disulfide I:10-II:10) |
| > 200 µM | – | – | H-QSNSEREWFC-NH2 [Example 38, NH2-QSNSEREWFC-CONH2] |
| 0.5 to 200 µM | – | – | H-EQSNSGWVWV-NH2 [Example 35, NH2-EQSNSGWVWV-CONH2] |
| 0.5 to 200 µM | – | – | CC(C)C[C@H](NC(=O)[C@H](CCCNC(=N)N)NC(=O)[C@H](CCC(=O)O)NC(=O)[C@H](C)NC(=O)[C@@H](NC(=O)[C@@H](N)CO)[C@@H](C)O)C(=O)N[C@@H](Cc1c[nH]c2ccccc12)C(=O)N[C@@H](Cc1ccccc1)C(=O)N[C@@H](CSSC[C@H](NC(=O)[C@H](Cc1ccccc1)NC(=O)[C@H](Cc1c[nH]c2ccccc12)NC(=O)[C@H](CC(C)C)NC(=O)[C@H](CCCNC(=N)N)NC(=O)[C@H](CCC(=O)O)NC(=O)[C@H](C)NC(=O)[C@@H](NC(=O)[C@@H](N)CO)[C@@H](C)O)C(=O)NCC(N)=O)C(=O)NCC(N)=O [Example 37] (I: H-STAERLWFCG-NH2 / II: H-STAERLWFCG-NH2; disulfide I:9-II:9) |
| 0.5 to 200 µM | – | – | CC(C)[C@H](NC(=O)[C@H](Cc1c[nH]c2ccccc12)NC(=O)[C@@H](NC(=O)[C@H](Cc1c[nH]c2ccccc12)NC(=O)CNC(=O)[C@H](CO)NC(=O)[C@H](CC(N)=O)NC(=O)[C@H](CO)NC(=O)[C@H](CCC(N)=O)NC(=O)[C@@H](N)CCC(=O)O)C(C)C)C(=O)NCC(=O)NCC(=O)NCC(=O)NCC(=O)N[C@@H](CSSC[C@H](NC(=O)CNC(=O)CNC(=O)CNC(=O)CNC(=O)[C@@H](NC(=O)[C@H](Cc1c[nH]c2ccccc12)NC(=O)[C@@H](NC(=O)[C@H](Cc1c[nH]c2ccccc12)NC(=O)CNC(=O)[C@H](CO)NC(=O)[C@H](CC(N)=O)NC(=O)[C@H](CO)NC(=O)[C@H](CCC(N)=O)NC(=O)[C@@H](N)CCC(=O)O)C(C)C)C(C)C)C(N)=O)C(N)=O [Example 46] (I: H-EQSNSGWVWVGGGGC-NH2 / II: H-EQSNSGWVWVGGGGC-NH2; disulfide I:15-II:15) |
| > 200 µM | – | – | Ac-ESGWVW-NH2 [Example 42, Ac-ESGWVW-CONH2] |
| > 200 µM | – | – | Ac-NSGWVW-NH2 [Example 43, Ac-NSGWVW-CONH2] |
| 0.5 to 200 µM | – | – | H-EQSNSGWVWVGGGGC-NH2 [Example 45, NH2-EQSNSGWVWVGGGGC-CONH2] |
| > 200 µM | – | – | H-STAERLWFCG-NH2 [Example 36, NH2-STAERLWFCG-CONH2] |
